Test results published in US20090285840A1, “METHODS FOR TREATING PATHOLOGICAL NEOVASCULARIZATION” (New York Society for the Ruptured and Crippled Maintaining …, priority 2008, published 2009).

Experiments:
EphB4 = experiment: Alkaline phosphatase shedding assay of transiently expressed EphB4 in mouse embryonic fibroblasts treated with H2O2; assay type: cell-based
Procedure: Stimulation of ADAM9-dependent shedding. […] Alkaline phosphatase shedding assays were performed as described (Weskamp et al., 1996, Cell Biol. 132:717-726; Zheng et al., 2002, J. BioI. Chem. 277:42463-42470) in (mouse embryonic fibroblasts) MEF cells and in pig aortic endothelial cells (PAE cells, kindly provided by Dr. Shahin Rafii). Reactive oxygen species (ROS) assays were performed using a modified version of the procedure reported by Sung et al., 2006, Cancer Res 66:9519-26). Specifically, 20 hours post-transfection, cells maintained at 50-60% culture density were washed twice with OptiMem over the course of 1 hour. […] The resulting supernatants and lysates were collected and assayed in triplicate for alkaline phosphatase activity as described previously (Sahin et al., 2006, “A sensitive method to monitor ectodomain shedding of ligands of the epidermal growth factor receptor,” In Epidermal Growth Factor: Methods and Protocols, In P. J. B. and T. B. Patel eds., Vol. 327, p. 99-113., Humana Press Inc., Totowa, N.J.; Sahin et al., J. Cell Biol. 164:769779; Zheng et al., 2002, J. BioI. Chem. 277:42463-42470). All data presented here representative example from at least three independent assays.
The shedding of EphB4 from Adam9 −/− cells could be rescued by transfection with ADAM9, however, the resulting activity could not be further enhanced by treatment with H2O2. […]

ADAM9 = ADAM9 expression in mouse embryonic fibroblasts treated with H2O2 (immunoblot); assay type: cell-based; conditions: MEF cells from wildtype mice, H2O2 200 μM (highest concentration), 6 hrs
[1] = target: alkaline phosphatase tagged EphB4 (UniProt P05187)
[2] = target: T1, alkaline phosphatase tagged E-Selectin (amino acids 31-612) (UniProt Q00690)
T1 sequence: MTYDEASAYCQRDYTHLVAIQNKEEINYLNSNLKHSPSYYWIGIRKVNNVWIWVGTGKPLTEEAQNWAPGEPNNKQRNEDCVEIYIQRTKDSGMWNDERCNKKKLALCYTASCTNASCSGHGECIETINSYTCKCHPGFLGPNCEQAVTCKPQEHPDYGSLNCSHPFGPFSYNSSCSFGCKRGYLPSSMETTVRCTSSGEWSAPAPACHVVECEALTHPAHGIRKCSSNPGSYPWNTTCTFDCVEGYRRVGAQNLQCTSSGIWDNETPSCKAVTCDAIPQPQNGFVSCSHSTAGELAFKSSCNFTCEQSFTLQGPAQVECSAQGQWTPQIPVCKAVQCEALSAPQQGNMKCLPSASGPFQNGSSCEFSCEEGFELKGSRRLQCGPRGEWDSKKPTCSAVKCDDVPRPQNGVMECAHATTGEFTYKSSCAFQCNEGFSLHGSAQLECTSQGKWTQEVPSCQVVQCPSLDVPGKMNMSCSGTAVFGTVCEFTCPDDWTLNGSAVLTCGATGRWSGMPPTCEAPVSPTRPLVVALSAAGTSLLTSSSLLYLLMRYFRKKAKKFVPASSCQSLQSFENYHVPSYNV

[3] = target: alkaline phosphatase tagged Tie-2 (amino acids 580-833) (UniProt Q02858)
[4] = target: T2, alkaline phosphatase tagged CD34 (amino acids 31-385) (UniProt Q64314)
T2 sequence: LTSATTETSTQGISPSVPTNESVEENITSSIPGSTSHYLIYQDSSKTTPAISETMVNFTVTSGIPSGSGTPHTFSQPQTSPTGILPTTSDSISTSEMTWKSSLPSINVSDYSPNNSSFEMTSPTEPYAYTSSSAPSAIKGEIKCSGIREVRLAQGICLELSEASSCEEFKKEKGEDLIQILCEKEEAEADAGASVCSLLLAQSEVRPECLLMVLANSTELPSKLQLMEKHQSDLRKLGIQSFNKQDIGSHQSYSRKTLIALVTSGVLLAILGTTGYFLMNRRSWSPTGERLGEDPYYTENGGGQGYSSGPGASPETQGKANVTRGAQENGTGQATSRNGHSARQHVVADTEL

[5] = target: alkaline phosphatase tagged ICAM-1 (amino acids 26-532) (UniProt P13597)
[6] = target: alkaline phosphatase tagged CD40 (amino acids 24-278) (UniProt P27512)
[7] = target: alkaline phosphatase tagged CD36 (UniProt P05187)
[8] = target: T3, alkaline phosphatase tagged VCAM-1 (amino acids 28-739) (UniProt P29533)
T3 sequence: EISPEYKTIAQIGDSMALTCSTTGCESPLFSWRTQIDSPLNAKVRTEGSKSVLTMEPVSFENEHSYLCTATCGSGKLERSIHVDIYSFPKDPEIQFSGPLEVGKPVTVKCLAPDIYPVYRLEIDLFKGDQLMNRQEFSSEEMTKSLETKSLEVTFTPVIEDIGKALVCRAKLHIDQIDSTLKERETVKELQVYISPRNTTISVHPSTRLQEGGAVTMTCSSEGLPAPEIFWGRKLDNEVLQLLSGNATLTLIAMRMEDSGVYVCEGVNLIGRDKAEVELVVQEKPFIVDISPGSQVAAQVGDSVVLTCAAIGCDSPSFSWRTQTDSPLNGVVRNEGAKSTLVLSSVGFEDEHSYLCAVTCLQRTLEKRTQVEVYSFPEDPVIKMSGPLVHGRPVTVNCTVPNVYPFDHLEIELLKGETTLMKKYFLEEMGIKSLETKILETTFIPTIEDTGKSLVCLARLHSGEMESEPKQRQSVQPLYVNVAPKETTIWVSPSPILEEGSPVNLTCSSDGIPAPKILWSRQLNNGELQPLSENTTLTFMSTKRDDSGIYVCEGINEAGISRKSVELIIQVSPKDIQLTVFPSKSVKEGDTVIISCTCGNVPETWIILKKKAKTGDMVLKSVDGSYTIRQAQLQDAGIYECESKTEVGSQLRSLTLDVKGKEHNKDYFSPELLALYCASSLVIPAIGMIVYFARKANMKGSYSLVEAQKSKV

[9] = target: alkaline phosphatase tagged VE-Cadherin (UniProt P05187)
[10] = target: alkaline phosphatase tagged EphrinB2 (UniProt P05187)
[11] = target: alkaline phosphatase tagged FLK-1 (amino acids 605-859) (UniProt P35918)
Sequence of UniProt P35918 (P35918 605-859): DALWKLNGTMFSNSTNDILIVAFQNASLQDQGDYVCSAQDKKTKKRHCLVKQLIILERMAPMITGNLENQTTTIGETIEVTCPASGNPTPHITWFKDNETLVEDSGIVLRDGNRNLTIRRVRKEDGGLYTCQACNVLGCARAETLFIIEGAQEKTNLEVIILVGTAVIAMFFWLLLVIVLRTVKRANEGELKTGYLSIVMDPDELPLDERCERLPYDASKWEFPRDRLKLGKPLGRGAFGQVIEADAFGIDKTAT

Sequence of ADAM9 (wild type, overexpressed from an expression construct) (Q13443 whole entry): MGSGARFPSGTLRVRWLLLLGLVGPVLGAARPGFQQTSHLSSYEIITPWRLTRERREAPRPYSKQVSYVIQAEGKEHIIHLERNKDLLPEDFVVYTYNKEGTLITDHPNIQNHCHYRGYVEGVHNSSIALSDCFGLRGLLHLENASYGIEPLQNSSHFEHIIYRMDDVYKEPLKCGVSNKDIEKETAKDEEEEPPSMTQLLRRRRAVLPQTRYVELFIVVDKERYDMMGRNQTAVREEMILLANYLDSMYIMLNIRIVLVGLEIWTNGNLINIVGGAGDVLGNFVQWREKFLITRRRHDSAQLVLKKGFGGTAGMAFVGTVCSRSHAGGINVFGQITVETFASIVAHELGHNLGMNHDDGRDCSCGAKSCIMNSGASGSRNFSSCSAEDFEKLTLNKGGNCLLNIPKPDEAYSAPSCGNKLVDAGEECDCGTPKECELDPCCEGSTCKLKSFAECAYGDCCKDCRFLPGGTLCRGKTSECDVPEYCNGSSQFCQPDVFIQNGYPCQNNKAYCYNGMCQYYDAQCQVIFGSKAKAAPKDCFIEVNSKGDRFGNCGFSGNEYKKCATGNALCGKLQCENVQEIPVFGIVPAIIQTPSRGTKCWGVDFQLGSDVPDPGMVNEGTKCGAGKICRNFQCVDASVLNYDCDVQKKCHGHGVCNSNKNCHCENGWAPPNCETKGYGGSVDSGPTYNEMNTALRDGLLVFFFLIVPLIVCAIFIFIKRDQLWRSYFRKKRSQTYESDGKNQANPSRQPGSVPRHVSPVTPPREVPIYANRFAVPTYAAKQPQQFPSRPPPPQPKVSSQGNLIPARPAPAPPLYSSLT
Sequence of UniProt Q02858 (Q02858 580-833): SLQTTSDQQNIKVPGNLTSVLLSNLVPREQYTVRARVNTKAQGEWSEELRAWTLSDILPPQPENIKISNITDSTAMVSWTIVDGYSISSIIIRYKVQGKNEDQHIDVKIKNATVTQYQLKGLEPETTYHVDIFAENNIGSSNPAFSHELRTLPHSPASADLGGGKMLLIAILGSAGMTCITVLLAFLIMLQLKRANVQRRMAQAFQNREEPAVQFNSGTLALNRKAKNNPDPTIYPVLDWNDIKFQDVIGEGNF
Sequence of UniProt P13597 (P13597 26-532): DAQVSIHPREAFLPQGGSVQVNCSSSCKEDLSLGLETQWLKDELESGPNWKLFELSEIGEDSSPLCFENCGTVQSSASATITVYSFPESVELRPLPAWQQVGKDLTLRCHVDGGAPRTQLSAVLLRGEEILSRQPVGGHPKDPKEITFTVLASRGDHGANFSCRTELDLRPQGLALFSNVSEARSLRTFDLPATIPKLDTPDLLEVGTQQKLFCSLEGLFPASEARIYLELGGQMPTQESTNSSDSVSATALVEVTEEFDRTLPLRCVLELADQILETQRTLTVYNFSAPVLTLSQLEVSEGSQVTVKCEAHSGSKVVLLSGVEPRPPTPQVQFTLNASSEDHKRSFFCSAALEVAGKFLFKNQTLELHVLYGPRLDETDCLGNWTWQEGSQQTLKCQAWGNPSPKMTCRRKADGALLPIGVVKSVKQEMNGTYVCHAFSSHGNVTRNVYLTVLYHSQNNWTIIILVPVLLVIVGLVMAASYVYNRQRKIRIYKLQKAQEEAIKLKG
Sequence of UniProt P27512 (P27512 24-278): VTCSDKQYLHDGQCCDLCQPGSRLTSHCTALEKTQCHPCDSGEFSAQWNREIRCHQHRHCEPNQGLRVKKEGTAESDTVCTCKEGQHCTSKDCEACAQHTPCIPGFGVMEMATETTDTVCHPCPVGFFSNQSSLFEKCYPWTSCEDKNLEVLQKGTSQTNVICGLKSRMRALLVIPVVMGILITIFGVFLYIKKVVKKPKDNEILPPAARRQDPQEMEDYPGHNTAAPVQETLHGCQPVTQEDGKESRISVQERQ

Molecule	EphB4 shedding (EphB4; Adam9 −/− cells expressing EphB4, 100 or 200 μM H2O2)	shedding of transiently expressed EphB4 (EphB4; wt MEF cells, 100 or 200 μM H2O2 for 6 hrs)	ADAM9 expression (ADAM9)	shedding (alkaline phosphatase activity released into the supernatant) [1]	shedding (alkaline phosphatase activity released into the supernatant) [2]	shedding (alkaline phosphatase activity released into the supernatant) [3]	shedding (alkaline phosphatase activity released into the supernatant) [4]	shedding (alkaline phosphatase activity released into the supernatant) [5]	shedding (alkaline phosphatase activity released into the supernatant) [6]	shedding (alkaline phosphatase activity released into the supernatant) [7]	shedding (alkaline phosphatase activity released into the supernatant) [8]	shedding (alkaline phosphatase activity released into the supernatant) [9]	shedding (alkaline phosphatase activity released into the supernatant) [10]	shedding (alkaline phosphatase activity released into the supernatant) [11]
OO [H2O2]	no increase in EphB4 shedding	strong increase in the shedding	increase in ADAM9 expression	–	–	–	–	–	–	–	–	–	–	–
ADAM9 (wild type, overexpressed from an expression construct)	–	–	–	overexpression of ADAM9 increased the shedding of CD40, EphB4, Flk1, Tie-2, VE-cadherin and VCAM compared to cells overexpressing ADAM9 E>A together with these substrates	Overexpression of ADAM9 did not increase the shedding of E-selectin, ICAM-1, Ephrin B2, CD34 and CD36 compared to ADAM9 E>A, at least under the conditions used here	overexpression of ADAM9 increased the shedding of CD40, EphB4, Flk1, Tie-2, VE-cadherin and VCAM compared to cells overexpressing ADAM9 E>A together with these substrates	Overexpression of ADAM9 did not increase the shedding of E-selectin, ICAM-1, Ephrin B2, CD34 and CD36 compared to ADAM9 E>A, at least under the conditions used here	Overexpression of ADAM9 did not increase the shedding of E-selectin, ICAM-1, Ephrin B2, CD34 and CD36 compared to ADAM9 E>A, at least under the conditions used here	overexpression of ADAM9 increased the shedding of CD40, EphB4, Flk1, Tie-2, VE-cadherin and VCAM compared to cells overexpressing ADAM9 E>A together with these substrates	Overexpression of ADAM9 did not increase the shedding of E-selectin, ICAM-1, Ephrin B2, CD34 and CD36 compared to ADAM9 E>A, at least under the conditions used here	overexpression of ADAM9 increased the shedding of CD40, EphB4, Flk1, Tie-2, VE-cadherin and VCAM compared to cells overexpressing ADAM9 E>A together with these substrates	overexpression of ADAM9 increased the shedding of CD40, EphB4, Flk1, Tie-2, VE-cadherin and VCAM compared to cells overexpressing ADAM9 E>A together with these substrates	Overexpression of ADAM9 did not increase the shedding of E-selectin, ICAM-1, Ephrin B2, CD34 and CD36 compared to ADAM9 E>A, at least under the conditions used here	overexpression of ADAM9 increased the shedding of CD40, EphB4, Flk1, Tie-2, VE-cadherin and VCAM compared to cells overexpressing ADAM9 E>A together with these substrates
